The term Kd denotes the equilibrium constant for the complex coming apart. Read a low Kd as tighter binding.

Substitutions are numbered along the chain they refer to.

The target of experiment [1] is T1, wildtype OX2R (Homo sapiens, UniProt O43614).
T1 sequence (O43614 1-444): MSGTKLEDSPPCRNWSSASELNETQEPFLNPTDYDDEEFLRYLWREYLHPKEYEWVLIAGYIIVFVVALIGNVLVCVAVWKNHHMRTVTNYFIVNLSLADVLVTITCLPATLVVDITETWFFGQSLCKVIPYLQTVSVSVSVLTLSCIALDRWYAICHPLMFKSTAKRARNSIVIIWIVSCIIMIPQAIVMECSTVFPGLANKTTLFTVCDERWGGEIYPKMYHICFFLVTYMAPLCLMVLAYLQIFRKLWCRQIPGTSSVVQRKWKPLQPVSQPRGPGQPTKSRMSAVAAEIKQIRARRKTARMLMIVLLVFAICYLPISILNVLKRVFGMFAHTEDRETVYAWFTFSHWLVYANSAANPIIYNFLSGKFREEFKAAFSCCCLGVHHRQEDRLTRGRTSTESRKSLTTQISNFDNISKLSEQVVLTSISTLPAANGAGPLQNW
In words: Saturation binding of 125I-OxA to wildtype OX2R. Particulars: CHO cell membranes, wild-type OX2R, room temperature, 6 h, pH 7.4; mean ± s.e.m., n = 3.

Experiment [2] concerns the target T2, engineered OX2R carrying an additional amino-terminal Avi-tag, biotinylated (Homo sapiens, UniProt O43614, residues V261–A291 deleted, biotin on the Avi-tag (BirA biotin-protein ligase)).
The target of experiment [3] is T3, Engineered human orexin receptor 2 (OX2R) truncated after R389, ICL3 residues V261-A291 deleted, with an … (human, UniProt O43614 1-389, residues V261–A291 deleted, biotin on the Avi-tag (BirA biotin-protein ligase)).
T3 construct: Orexin receptor type 2 (OX2R), human, truncated after residue R389, part of ICL3 (residues V261-A291) deleted; M1 is said to be present in the construct; Detergent-solubilised receptor (DDM/CHS); The PDB entries hold the construct without the Avi-tag; also called engineered OX2R; orexin receptor type 2; source: biotinylated with BirA; not shown: Avi-tag, N-terminal, kept
T3 sequence (looked up): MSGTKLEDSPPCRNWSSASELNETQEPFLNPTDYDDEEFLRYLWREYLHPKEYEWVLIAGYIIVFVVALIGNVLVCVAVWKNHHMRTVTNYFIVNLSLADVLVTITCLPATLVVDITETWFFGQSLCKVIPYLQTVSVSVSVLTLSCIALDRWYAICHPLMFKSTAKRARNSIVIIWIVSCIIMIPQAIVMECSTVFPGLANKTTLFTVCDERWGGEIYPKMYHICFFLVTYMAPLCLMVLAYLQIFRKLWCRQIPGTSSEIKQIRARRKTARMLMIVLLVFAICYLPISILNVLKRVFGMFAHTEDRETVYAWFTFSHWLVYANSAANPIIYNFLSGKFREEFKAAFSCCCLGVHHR
Kind of experiment: grating-coupled interferometry; WAVE system (Creoptix); agonist-bound OX2R immobilised via the biotinylated Avi-tag on a neutravidin-coated WAVEchip 4PCP; nanobody as analyte. The conditions noted are these: both partners purified.

Experiment [4] deals with T2, engineered OX2R carrying an additional …. Kind of experiment: grating-coupled interferometry; WAVE system (Creoptix); agonist-bound OX2R immobilised via the biotinylated Avi-tag on a neutravidin-coated WAVEchip 4PCP. Particulars: both partners purified.

For “125I-OxA: radioligand, 125I-labelled OxA (PerkinElmer) (QPLPDCCRQKTCSCRLYELLHGAGNHAAGILTL)”, in experiment [1], the “Dissociation constant, pKD” value was 9.12 ± 0.05.

B1: 36 (VHH)
VHH: QVQLVESGGGLVQAGGSLRLSCAASGFPVNTHTMYWYRQAPGKEREWVAAITSNGQSTAYADSVKGRFTISRDNAKNTVYLQMNSLKPEDTAVYYCEVRVGYFYHGQGTQVTVS
B1: the binding result in experiment [2] was “binds”.

B2: 47 (VHH)
VHH: B1 VHH with N30D, T31S, H32K, T52A, N54A, Q56H, S57L, R99H, Y102W
As for B2, the binding result in experiment [2] is listed as “binds”.

B3: Synthetic nanobody clone 45 (VHH)
VHH: B1 VHH with N30Y, H32Y, N54E, Q56I, R99Y
notes: synthetic nanobody selected from the libraries of Zimmermann and coworkers by ribosome display and phage display; Host, tags and purification are told only for Sb51 (clone 51); also called Clone No. 45
Regarding B3, the Kd in experiment [3] came out at 11 nM.

B4: 57 (VHH)
VHH: B1 VHH with N30S, T31Q, H32K, T52A, N54E, S57K, R99Y
For the molecule B4, in experiment [2], the binding result is “binds”.

B5: 41 (VHH)
VHH: B1 VHH with T31S, H32Y, T33V, T52G, N54T, Q56E, S57Y, R99F, H105Y
As to B5, the binding result in experiment [2] is given as “binds”.

B6: 48 (VHH)
VHH: B1 VHH with N30A, T31M, H32N, N54S, Q56E, S57H, R99Y
As for B6, in experiment [2], the binding result is listed as “binds”.

B7: 49 (VHH)
VHH: B1 VHH with N30Y, T31N, H32N, T52S, N54G, Q56S, S57N, R99Y
With B7, the binding result in experiment [2] is reported as “binds”.

B8: 38 (VHH)
VHH: B1 VHH with N30Y, H32N, N54S, Q56H, S57N, R99Y, Y102W
Regarding B8, the binding result in experiment [2] was “binds”.

B9: 42 (VHH)
VHH: B1 VHH with H32R, T33S, T52A, N54T, Q56W, R99E, F103W, H105Y
Take B9: the binding result in experiment [2] is “binds”.

B10: 50 (VHH)
VHH: B1 VHH with N30W, T31H, H32D, T52G, N54T, Q56N, S57L, R99Y
Consider B10, for which, in experiment [2], the binding result is “binds”.

B11: 53 (VHH)
VHH: B1 VHH with H32R, T33S, T52A, N54T, Q56W, R99Y
B11: the binding result in experiment [2] is “binds”.

B12: Synthetic nanobody clone 46 (VHH)
VHH: B1 VHH with N30D, T31A, H32Y, T33V, T52A, N54Q, Q56H, S57P, R99Y, Q110R
notes: synthetic nanobody selected from the libraries of Zimmermann and coworkers by ribosome display and phage display; Host, tags and purification are told only for Sb51 (clone 51); also called Clone No. 46
With B12, binding in experiment [3] was characterised by a dissociation constant (Kd) of 4.2 nM.

B13: Synthetic nanobody clone 55 (VHH)
VHH: B1 VHH with N30Q, T31S, T52N, N54T, S57G, R99Y
notes: synthetic nanobody selected from the libraries of Zimmermann and coworkers by ribosome display and phage display; Host, tags and purification are told only for Sb51 (clone 51); also called Clone No. 55
In the case of B13, in experiment [3], the Kd came to 7.3 nM.

B14: Synthetic nanobody clone 44 (VHH)
VHH: B1 VHH with N30D, H32Y, T52N, Q56H, S57H, R99Y, Y102W, F103W, H105Y
notes: synthetic nanobody selected from the libraries of Zimmermann and coworkers by ribosome display and phage display; Host, tags and purification are told only for Sb51 (clone 51); also called Clone No. 44
B14 gave a Kd in experiment [3] of 7.7 nM.

B15: Synthetic nanobody clone 56 (VHH)
VHH: QVQLVESGGGLVQAGGSLRLSCAASGFPVVSYNMKWYRQAPGKEREWVAAIYSFGSLGSWTHYADSVKGRFTISRDNAKNTVYLQMNSLKPEDTAVYYCHVYVGATYYGQGTQVTVS
notes: synthetic nanobody selected from the libraries of Zimmermann and coworkers by ribosome display and phage display; Host, tags and purification are told only for Sb51 (clone 51); also called Clone No. 56
In experiment [3], B15 had a Kd of 0.5 nM.

B16: 37 (VHH)
VHH: QVQLVESGGGLVQAGGSLRLSCAASGFPVWWKSMAWYRQAPGKEREWVAAISSFGWYTEYADSVKGRFTISRDNAKNTVYLQMNSLKPEDTAVYYCAVYVGSYYWGRGTQVTVS
B16: the binding result in experiment [2] is on record as “binds”.

B17: 39 (VHH)
VHH: B16 VHH with W30K, F54W, A97Y, S102H, Y103T, W105H, R107Q
Consider B17, for which the binding result in experiment [2] was “binds”.

B18: 52 (VHH)
VHH: B16 VHH with W30K, F54Y, Y57H, A97T, Y99N, S102K, Y103G, W105E, R107Q
With B18, the binding result in experiment [2] was “binds”.

B19: 54 (VHH)
VHH: QVQLVESGGGLVQAGGSLRLSCAASGFPVQHYVMYWYRQAPGKEREWVAAIDSSGAHTVYADSVKGRFTISRDNAKNTVYLQMNSLKPEDTAVYYCEVYVGWFYHGQGTQVTVS
B19: the binding result in experiment [2] is “binds”.

B20: Synthetic nanobody clone 13 (VHH)
VHH: QVQLVESGGGLVQAGGSLRLSCAASGFPVNAREMYWYRQAPGKEREWVAAIVSKGSHTEYADSVKGRFTISRDNAKNTVYLQMNSLKPEDTAVYYCNVKDFGWWAVYYDYWGQGTQVTVS
notes: synthetic nanobody selected from the libraries of Zimmermann and coworkers by ribosome display and phage display; Host, tags and purification are told only for Sb51 (clone 51); also called Clone No. 13
The molecule B20 returned a dissociation constant (Kd) in experiment [3] of 12 nM.

B21: Synthetic nanobody clone 7 (VHH)
VHH: B20 VHH with N30L, A31R, R32Q, Y35F, V52W, H57T, F101Y, A105N, V106N, Y107W
notes: synthetic nanobody selected from the libraries of Zimmermann and coworkers by ribosome display and phage display; Host, tags and purification are told only for Sb51 (clone 51: E. coli C41(DE3), MBP fusion cleaved by TEV); also called Clone No. 7
Turning to B21, the Kd in experiment [3] was 11 nM.

B22: Synthetic nanobody clone 15 (VHH)
VHH: B20 VHH with N30K, A31Q, Y35A, V52W, S56A, E59V, A105N, V106R, Y107Q
notes: synthetic nanobody selected from the libraries of Zimmermann and coworkers by ribosome display and phage display; Host, tags and purification are told only for Sb51 (clone 51); also called Clone No. 15
Consider B22, for which the Kd in experiment [3] amounted to 300 nM.

B23: synthetic nanobody Sb51 (VHH)
VHH: QVQLVESGGGLVQAGGSLRLSCAASGFPVGRVMYWYRQAPGKEREWVAAISSHGDMTAYADSVKGRFTISRDNAKNTVYLQMNSLKPEDTAVYYCEVYVGYFYHGQGTQVTVS
notes: in the coordinates deposited here (complex with compound 1); Supplementary Data 1 lists the hits from which Sb51 was chosen; source: E. coli C41(DE3) periplasm, MBP fusion, purified (NiNTA, TEV cleavage, NiNTA, cation exchange); not shown: His10, N-terminal, cleaved
Molecule B23 had a Kd in experiment [4] of approximately 0.6 nM.

B24: 43 (VHH)
VHH: QVQLVESGGGLVQAGGSLRLSCAASGFPVSYIGMEWYRQAPGKEREWVAAITGFGHWTAYADSVKGRFTISRDNAKNTVYLQMNSLKPEDTAVYYCEVQVGAKYYGQGTQVTVS
For the molecule B24, the binding result in experiment [2] was “binds”.

B25: 40 (VHH)
VHH: QLQLVESGGGLVQAGGSLRLSCAASGFPVRSYTMYWYSQAPGKEREWVAAINSQGNTTAYADSVKGRFTISRDNAKNTVYLQMNSLKPEDTAVYYCEVYVGYWYHGQGTQVTVS
B25: the binding result in experiment [2] is given as “binds”.

(Values after article PMC7864924, “Structures of active-state orexin receptor 2 rationalize peptide and small-molecule agonist recognition and receptor activation” (Nature Communications, 2021).)
